# Source: IntAct's records for PubMed 20584941
# B1: Protein RESTRICTED TEV MOVEMENT 3 (Arabidopsis thaliana (Mouse-ear cress)), D5K228 (parent)
# chain: MGKQFDKKITWTIKNFASLLSDLIYSDHFVVGGCKWHLRAYPKGYNNANSLSLFLGVAVPTSLPSGWRRHTKFRLTLVNQLSDKLSQSKLNELEQWFDEKTTNWGLSSMCPLNEIHAKDSGFLLNGELKIVVEIKVLETIGKLDVTEETSTITETVDVNGFQLLPSQAKSVSRMFAKHPELASDLRPKNPNLRTGYMSLLLSLIETLSQLPQQMSKDDLLDAYDALGSMRDAGFKLDWLEKKLYEVSEKKENEEASETGLQEMEEELKDMKQKCLEMEALVEKEKAKVSTAKAPISFDDIV
# partner: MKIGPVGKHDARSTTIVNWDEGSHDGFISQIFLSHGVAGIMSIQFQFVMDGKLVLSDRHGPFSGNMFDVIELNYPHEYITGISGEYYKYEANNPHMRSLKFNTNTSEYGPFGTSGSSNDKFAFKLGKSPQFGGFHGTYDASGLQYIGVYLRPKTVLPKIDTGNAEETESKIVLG
# Variants of: B1
# Settings: with jal1_arath RTM1, Q9SE37
row,Variant,effect of a mutation on the interaction
1,MGKQFDKKITWTIKNFASLLSDLIYSDHFVVGGCKWHLRAYPKGYNNANSLSLFLGVAVPTSLPSGWRRHTKFRLTLVNQLSDKLSQSKLNELEQWFDEKTTNWGLSSMCPLNEIHAKDSGFLLNGELKIVVEIKVLETIGKLDVTEETSTITETVDVNGFQLLPSQAKSVSRMFAKHPELASDLRPKNPNLRTGYMSLLLSLIETLSQLPQQMSKDDLLDAYDALGSMRDAGFKLDWLEKKLYEVSEKKENEEASETGLQEMEEELKDMKQKCLEMEALVEKKKAKVSTAKAPISFDDIV [E284K],decreasing interaction
